Test results published in patent publication US20210147572A1, “ANTIBODIES AND METHODS OF USE THEREOF” (AbeXXa Biologics, Inc., priority 2017, published 2021).

Legend:
[1] = target: T1, HLA-E molecules expressed in PDX lung tumor tissue (Homo sapiens, UniProt P13747); assay: LC/MS/MS validation of peptides eluted from HLA-E of PDX lung tumor tissue; conditions: PDX model LU5139, HLA-E affinity column 4D12
T1 construct: tissue Crown Biosciences PDX model LU5139; host or cells: patient-derived xenograft lung tumour tissue
Method: FIG. 6 exemplifies a validation strategy used for cancer specific HLA-E-peptide targets. 1) Snap-frozen tumor tissue isolated from patient-derived xenograft (PDX) models, patient biopsies or freshly isolated hematological cancer cells are stored frozen in liquid nitrogen. 2) Sample of material is isolated and resuspended in 5 to 10 ml of lysis buffer and homogenized for 10 seconds on ice. After lhr incubation on ice, the sample is centrifuged for 20 min at 40,000 g. 3) An affinity column is prepared using antibody 4D12 or another antibody to HLA-E. The purified anti-HLA-E antibodies are coupled to a CN-Br-activated sepharose beads. The clarified supernatant is then applied to the affinity column. The column is washed with PBS, followed by a second wash with water and the sample eluted with 0.1M glycine pH 3.0. 4) Collected sample is immediately neutralized with addition of NH4HCO3. […]
PDX lung tumor tissue was purchased from Crown Biosciences and used for extraction of HLA-E-peptide complexes. […] An aliquot of sample supernatant was removed and protein concentration was determined by BCA assay. […]
Peptide mixture samples underwent solid-phase extraction cleanup with an Oasis HLB elution plate (Waters) and the resulting samples were analyzed by LC/MS/MS, using an Orbitrap Fusion Lumos mass spectrometer (Thermo Electron) coupled to an UltiMate™ 3000 RSLC-Nano liquid chromatography system (Dionex). […]

HLA-E*0103 = HLA-E*0103 (Homo sapiens, UniProt P13747); assay: HLA-E*0103 peptide binding and refolding into monomer; format: biochemical
[2] = target: T2, HLA-E*0103 extracellular domain with beta-2-microglobulin (recombinant, before peptide loading) (human); assay: peptide binding and refold into monomer complex
[3] = target: T2, HLA-E*0103 extracellular domain with …; assay: in vitro refold, Superdex 75 size exclusion

For GLADKVYFL, the “Peptide detected in lung PDX tissue by LC/MS/MS” value [1] was “isolated from HLA-E molecules expressed in PDX lung tumor tissue”.

In the case of YLLPAIVHI [RNA Helicase p68 peptide], the “HLA-E*0103 peptide binding, refold into stable monomer complexes” value (HLA-E*0103) is reported as “successfully refold HLA-E*0103/peptide into stable monomer complexes”.

YLLPAIVHI [peptide YLLPAIVHI (RNA Helicase p68)]: binds [2].

GLADKVYFL [peptide GLADKVYFL (CAD protein)]: binds [3].
